Measurements taken from patent US7790682B1, “Engineered human acidic fibroblast growth factors and associated methods” (The Florida State University Research Foundation, Inc., priority 2003, dated 2010).
“Also recorded” adds a separate entry of the source.

Tests used:
NIH 3T3 fibroblasts = experiment: Cell proliferation (mitogenic activity) assay; type: cell-based; conditions: NIH 3T3 fibroblasts; for EC50 (effective concentration for 50% maximal stimulation): 48 hours
Procedure: NIH 3T3 fibroblasts were initially plated in Dulbecco's modified Eagle's medium (DMEM) (American Type Culture Collection, Manassas Va.) supplemented with 10% (v/v) newborn calf serum (NCS) (Sigma, St. Louis Mo.), 100 units of penicillin, 100 μg streptomycin, 0.25 μg Fungizone™ and 0.01 mg/ml gentamicin (Gibco, Carlsbad Calif.) (“serum-rich” medium) in T75 tissue culture flasks (Fisher, Pittsburgh Pa.). The cultures were incubated at 37° C. and all cell growth was performed with 5% CO2 supplementation. At approximately 80% cell confluence, the cells were washed with 5 ml cold 0.14M NaCl, 5.1 mM KCl, 0.7 mM Na2HPO4 and 24.8 mM Trizma® base, pH 7.4 (TBS) and subsequently treated with 5 ml of a 0.025% trypsin solution (Invitrogen Corp., Carlsbad Calif.). Cell synchronization was initiated by serum starvation in DMEM with 0.5% NCS, 100 units of penicillin, 100 μg streptomycin, 0.25 μg Fungizone™ and 0.01 mg/ml gentamicin (“starvation” medium). The cells were seeded in T25 tissue culture flasks (Fisher, Pittsburgh, Pa.) at a cell density of 3.0×10^4 cells/cm^2 (representing ˜20% confluence). Duplicate flasks were used for each protein concentration. Cultures were incubated for 48 hours at 37° C., the medium was then decanted and replaced with fresh medium supplemented with the appropriate concentration of FGF-1 polypeptide, and incubated for an additional 48 hours. After this incubation, the medium was decanted and the cells were washed with 1 ml cold TBS pH 7.4. 1 ml of 0.025% trypsin was then added to release the cells from the flask surface, and 2 ml of serum-rich medium were added to dilute and inhibit the trypsin. The cells were counted using a hemocytometer (Hausser Scientific Partnership, Horsham Pa.). Experiments were performed in quadruplicate and the cell densities were averaged. The relationship between the cell number and log concentration of added growth factor was fit to a sigmoidal function.
Mitogenic activity towards NIH 3T3 fibroblasts was determined for WT*, SYM5, SYM5Δ104-106, SYM5Δ120-122, and SYM6ΔΔ mutants. […] The NIH 3T3 fibroblast proliferative activity of WT* FGF-1 yielded an effective concentration for 50% maximal stimulation (EC50) of 60 ng/ml (FIG. 3).

[1] = Heparin Sepharose affinity chromatography / heparin-binding affinity
Excerpt: All studies herein disclosed utilized a synthetic gene for the 140 amino acid form of human FGF-1 with the addition of an amino-terminal six residue “His-tag” to facilitate purification using nickel nitrilotriacetic acid (Ni-NTA) affinity resin (QIAGEN, Valencia Calif.). The QuikChange® site-directed mutagenesis protocol (Stratagene, La Jolla Calif.) was used to introduce mutations, individually or in combination, using mutagenic oligonucleotides of 25 to 31 bases in length (Biomolecular Analysis Synthesis and Sequencing Laboratory, Florida State University). For deletions involving residues 104-106 and 120-122, mutagenic oligonucleotides were used to delete these positions as well as to simultaneously create point mutations Ala103 ? Gly and Arg119 ? Gly, respectively. […]
All mutant proteins, with the exception of the SYM6 mutant were expressed at levels similar to the WT* protein (i.e. ˜30-100 mg/L). […] Phe, and E280nm (0.1%, 1 cm)=1.31 for all deletion mutations (determined by dithionitrobenzoate titration of cysteine residues).
To quantify the reduced affinity for heparin (a polysulfonated polysaccharide) we determined the affinity for sucrose octasulfate, a structural mimic of a heparin dimer, by isothermal titration calorimetry. […]

Molecule	EC50 (effective concentration for 50% maximal stimulation) (NIH 3T3 fibroblasts)	mitogenic activity in comparison to WT* (in words) (NIH 3T3 fibroblasts)	heparin-binding affinity (in words) [1]
WT*: Wild type (his-tagged) 140 amino acid form of human FGF-1, SEQ ID NO: 4 [reference compound]	60 ng/mL	–	–
SYM5: FGF-1 core mutant Leu44→Phe/Leu73→Val/Val109→Leu/Leu111→Ile/Cys117→Val (protein, UniProt P05230 16-155, looked up, variant L44F L73V V109L L111I C117V) Fibroblast growth factor 1: FNLPPGNYKKPKLLYCSNGGHFLRILPDGTVDGTRDRSDQHIQFQLSAESVGEVYIKSTETGQYLAMDTDGLVYGSQTPNEECLFLERLEENHYNTYISKKHAEKNWFLGIKKNGSVKRGPRTHYGQKAILFLPLPVSSD	–	essentially identical results as WT*	–
SYM5/Δ104-106: SYM5 FGF-1 mutant plus Ala103→Gly/ΔGlu104/ΔLys105/ΔAsn106 (protein, UniProt P05230 16-155, looked up, variant L44F L73V V109L L111I C117V A103G del104-106) Fibroblast growth factor 1: FNLPPGNYKKPKLLYCSNGGHFLRILPDGTVDGTRDRSDQHIQFQLSAESVGEVYIKSTETGQYLAMDTDGLVYGSQTPNEECLFLERLEENHYNTYISKKHGWFLGIKKNGSVKRGPRTHYGQKAILFLPLPVSSD	115 ng/mL	approximately two-fold less mitogenic activity	–
SYM6/ΔΔ: SYM6 FGF-1 mutant plus both Δ104-106 and Δ120-122 deletion mutations, SEQ ID NO: 1 (protein, Human FGF-1 mutant SYM6DD) FNLPPGNYKKPKLLYCSNGGHFLRILPDGTVDGTRDRSDQHIQFQLSAESVGEVYIKSTETGQYLAIDTDGLVYGSQTPNEECLFLERLEENHYNTYISKKHGWFLGIKKNGSVKGTHYGQKAILFLPLPVSSD	0.84 ng/mL	almost two orders of magnitude more potent	markedly reduced; also recorded: decreased heparin binding affinity
SYM5/Δ120-122: SYM5 FGF-1 mutant plus Arg119→Gly/ΔGly120/ΔPro121/ΔArg122, SEQ ID NO: 2 (protein, Human FGF-1 mutant SYM5D120-122) FNLPPGNYKKPKLLYCSNGGHFLRILPDGTVDGTRDRSDQHIQFQLSAESVGEVYIKSTETGQYLAMDTDGLVYGSQTPNEECLFLERLEENHYNTYISKKHAEKNWFLGIKKNGSVKGTHYGQKAILFLPLPVSSD	2.1 ng/mL	–	–
